B1: B2A-IgG1 (antibody)
heavy: not shown
light: DVVMTQTPSSVSAALGGTVTIKCQASQSIGSNLAWYQLKPGQRPKLLIYAAATLASGGSSRFKGSGSGTDFTLTISDLECADAATYYCQSYVSGSSDVAFGGGTEVVVKRTVAAPSVFIFPPSDEQLKSGTASVVCLLNNFYPREAKVQWKVDNALQSGNSQESVTEQDSKDSTYSLSSTLTLSKADYEKHKVYACEVTHQGLSSPVTKSFNRGEC
notes: Rabbit variable regions on human IgG1 / kappa constant regions; AF647-conjugated in some flow assays; also called B2A-IgG1 chimera; anti-LILRB2 B2A-IgG1
B2: B2A-IgG4 (antibody)
heavy: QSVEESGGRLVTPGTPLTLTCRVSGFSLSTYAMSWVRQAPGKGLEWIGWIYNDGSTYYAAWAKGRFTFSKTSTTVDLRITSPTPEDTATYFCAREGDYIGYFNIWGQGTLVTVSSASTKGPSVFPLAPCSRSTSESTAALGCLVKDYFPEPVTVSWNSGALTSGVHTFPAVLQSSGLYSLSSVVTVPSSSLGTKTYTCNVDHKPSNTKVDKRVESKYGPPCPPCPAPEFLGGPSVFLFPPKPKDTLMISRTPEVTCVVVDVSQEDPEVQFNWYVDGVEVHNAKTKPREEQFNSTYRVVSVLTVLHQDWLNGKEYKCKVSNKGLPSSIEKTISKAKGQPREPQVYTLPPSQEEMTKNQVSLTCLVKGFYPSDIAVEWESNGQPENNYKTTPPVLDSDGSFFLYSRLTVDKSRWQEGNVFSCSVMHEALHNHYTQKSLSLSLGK
light: B1 light
notes: Rabbit variable regions on human IgG4 / kappa constant regions; also called B2A-IgG4 chimera; Parent B2A-IgG4

How the values were obtained:
[1] = biological target: T1, Recombinant human LILRB2 protein (ELISA antigen) (human, UniProt Q8N423 22-460); assay: ELISA, plate-coated recombinant human LILRB2
T1 construct: also called LILRB2-His; recombinant LILRB2
Protocol: To confirm binding to human and cynomolgus LILRB2, antibodies in supernatants were evaluated for binding by enzyme-linked immunosorbent assay (ELISA). Recombinant LILRB2 proteins (human: SEQ ID NO: 48; cynomolgus) were diluted in PBS to 2 μg/mL and added to 384-well high-binding ELISA plates (Greiner Bio-One Microlon™) at 25 μL/well and incubated at 4° C. overnight. The plates were washed three times with Wash Buffer (0.05% Tween® 20 in PBS), using a microplate washer and then blocked with 90 μL/well of ELISA Blocking Buffer A (1% BSA in PBS) for 1 hour at room temperature (RT). After blocking, 25 μL/well of LILRB2 antibodies or isotype control were added to the plates and incubated for 1 hour at RT. After primary antibody binding, plates were washed three times with Wash Buffer using a microplate washer. Secondary detection antibody (HRP-goat anti-rabbit Fab fragment) was diluted to 1:3000 in assay diluent (1% BSA in PBS) and 25 μL/well was added to plates and incubated at RT protected from light for 1 hour. Following incubation, plates were washed four times with Wash Buffer, using a microplate washer. […] After development, the reaction was stopped by addition of 25 μL/well of 0.3 M HCl, and plates were read using an EnVision (Perkin Elmer) microplate reader at 450 nm. EC₅₀ values were calculated based on log concentration of the primary antibodies at optical density at 450 nm.

[2] = biological target: T2, Human LILRB2 on transiently transfected HEK293-6E cells (human, UniProt Q8N423 22-597); assay: flow cytometry, transiently transfected HEK293-6E cells
T2 construct: whole, on cells; also called hLILRB2
Protocol: (§1) To determine that the anti-LILRB2 antibodies specifically bind to LILRB2 and not other LILRB and LILRA family members, a cross-reactivity assay was performed. Cross-reactivity of the LILRB2 antibodies to other LILRB proteins was assessed by antibody binding to transiently transfected HEK293-6E cells, measured by flow cytometry. Binding was evaluated to HEK293-6E cells transiently transfected with human LILRB-1, -2, -3, -4, and 5 plasmids (Origene, Nos. RC219949, RC217935, RC211228, RC220932, RC206516) or to cells transiently transfected with human LILRA-1, -2, -4, -5, and -6 plasmids (Origene, Nos. RC210808, RC205626, RC220452, RC212310 RC212965). […] Murine primary antibodies to LILRA and LILRB targets and corresponding isotype controls were used to confirm specific binding of all targets tested (R&D Systems) while an AF647 F(ab′)₂ fragment goat anti-mouse antibody (Jackson ImmunoResearch, No. 115-606-062) was used for the detection of bound positive control antibodies. No binding of B2A-IgG4 or B2A-IgG1 to LILRB-1, -3, -4, or -5 was observed, and no binding of either antibody to LILRA-1, -2, -4, -5, or -6 was observed, confirming specificity of these antibodies.

[3] = biological target: T3, Human LILRA1 on transiently transfected HEK293-6E cells (human, UniProt O75019 17-489); assay: as above
T3 construct: whole, on cells; also called hLILRA1
Protocol: as §1

[4] = biological target: T4, Human LILRA2 on transiently transfected HEK293-6E cells (human, UniProt Q8N149 24-483); assay: as above
T4 construct: whole, on cells; also called hLILRA2
Protocol: as §1

[5] = biological target: T5, Human LILRA4 on transiently transfected HEK293-6E cells (human, UniProt P59901 24-499); assay: as above
T5 construct: whole, on cells; also called hLILRA4
Protocol: as §1

[6] = biological target: T6, Human LILRA5 on transiently transfected HEK293-6E cells (human, UniProt A6NI73 42-299); assay: as above
T6 construct: whole, on cells; also called hLILRA5
Protocol: as §1

[7] = biological target: T7, Human LILRA6 on transiently transfected HEK293-6E cells (human, UniProt Q6PI73 24-481); assay: as above
T7 construct: whole, on cells; also called hLILRA6
Protocol: as §1

[8] = biological target: T8, Human LILRB3 on transiently transfected HEK293-6E cells (human, UniProt O75022 24-631); assay: as above
T8 construct: whole, on cells; also called hLILRB3
Protocol: as §1

[9] = biological target: T9, Human LILRB4 on transiently transfected HEK293-6E cells (human, UniProt Q8NHJ6 22-448); assay: as above
T9 construct: whole, on cells; also called hLILRB4
Protocol: as §1

[10] = biological target: T10, Human LILRB5 on transiently transfected HEK293-6E cells (human, UniProt O75023 24-590); assay: as above
T10 construct: whole, on cells; also called hLILRB5
Protocol: as §1

[11] = biological target: T1, Recombinant human LILRB2 protein (ELISA …); assay: ELISA, immobilized LILRB2-His; conditioned media of transient transfections
Protocol: To confirm binding to human and cynomolgus LILRB2, antibodies in supernatants were evaluated for binding by enzyme-linked immunosorbent assay (ELISA). Recombinant LILRB2 proteins (human: SEQ ID NO: 48; cynomolgus) were diluted in PBS to 2 μg/mL and added to 384-well high-binding ELISA plates (Greiner Bio-One Microlon™) at 25 μL/well and incubated at 4° C. overnight. The plates were washed three times with Wash Buffer (0.05% Tween® 20 in PBS), using a microplate washer and then blocked with 90 μL/well of ELISA Blocking Buffer A (1% BSA in PBS) for 1 hour at room temperature (RT). After blocking, 25 μL/well of LILRB2 antibodies or isotype control were added to the plates and incubated for 1 hour at RT. After primary antibody binding, plates were washed three times with Wash Buffer using a microplate washer. Secondary detection antibody (HRP-goat anti-rabbit Fab fragment) was diluted to 1:3000 in assay diluent (1% BSA in PBS) and 25 μL/well was added to plates and incubated at RT protected from light for 1 hour. Following incubation, plates were washed four times with Wash Buffer, using a microplate washer. After removal of the final wash, 25 μL/well of 1-Step™ Ultra TMB-ELISA Substrate Solution (Thermo Fisher, No. 34028) was added and plates were incubated for 5-10 min at RT, protected from light. After development, the reaction was stopped by addition of 25 μL/well of 0.3 M HCl, and plates were read using an EnVision (Perkin Elmer) microplate reader at 450 nm. EC₅₀ values were calculated based on log concentration of the primary antibodies at optical density at 450 nm.
Twenty-five IgG4 variants were expressed in mammalian cell culture as a combinatorial library of the five light and five heavy chains. In addition, B2A-IgG4 was included as a transfection control. The conditioned media from these transient transfections were assayed for human IgG concentration. A plate-based ELISA (see Example 2) was performed in which LILRB2-His was immobilized, and binding of humanized mAb variants was detected via an anti-human IgG4 HRP-labeled secondary antibody. The parental rabbit/human chimera clone transfection served as the benchmark EC₅₀ positive control.

T2 sequence (Q8N423 22-597): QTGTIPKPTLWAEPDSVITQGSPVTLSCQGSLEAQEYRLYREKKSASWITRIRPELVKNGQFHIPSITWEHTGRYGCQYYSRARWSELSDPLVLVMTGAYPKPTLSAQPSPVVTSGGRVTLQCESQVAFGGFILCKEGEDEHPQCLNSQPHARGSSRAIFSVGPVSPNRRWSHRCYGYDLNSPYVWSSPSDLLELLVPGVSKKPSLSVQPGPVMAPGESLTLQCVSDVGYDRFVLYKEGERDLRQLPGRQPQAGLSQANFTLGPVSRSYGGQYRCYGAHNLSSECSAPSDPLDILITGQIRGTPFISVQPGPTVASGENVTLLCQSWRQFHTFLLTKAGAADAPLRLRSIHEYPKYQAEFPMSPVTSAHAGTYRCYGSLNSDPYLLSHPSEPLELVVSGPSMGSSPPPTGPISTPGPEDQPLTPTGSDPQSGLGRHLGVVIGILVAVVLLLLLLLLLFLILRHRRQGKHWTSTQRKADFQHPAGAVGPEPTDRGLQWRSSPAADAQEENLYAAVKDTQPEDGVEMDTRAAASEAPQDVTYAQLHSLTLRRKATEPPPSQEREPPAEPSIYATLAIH
T6 sequence (A6NI73 42-299): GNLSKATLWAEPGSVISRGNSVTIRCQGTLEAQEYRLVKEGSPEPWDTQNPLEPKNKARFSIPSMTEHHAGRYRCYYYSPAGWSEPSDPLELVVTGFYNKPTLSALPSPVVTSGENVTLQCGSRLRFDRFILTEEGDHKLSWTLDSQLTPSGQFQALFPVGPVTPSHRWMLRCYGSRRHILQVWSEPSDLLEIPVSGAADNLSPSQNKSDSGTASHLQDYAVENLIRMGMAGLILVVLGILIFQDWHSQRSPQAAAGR
T7 sequence (Q6PI73 24-481): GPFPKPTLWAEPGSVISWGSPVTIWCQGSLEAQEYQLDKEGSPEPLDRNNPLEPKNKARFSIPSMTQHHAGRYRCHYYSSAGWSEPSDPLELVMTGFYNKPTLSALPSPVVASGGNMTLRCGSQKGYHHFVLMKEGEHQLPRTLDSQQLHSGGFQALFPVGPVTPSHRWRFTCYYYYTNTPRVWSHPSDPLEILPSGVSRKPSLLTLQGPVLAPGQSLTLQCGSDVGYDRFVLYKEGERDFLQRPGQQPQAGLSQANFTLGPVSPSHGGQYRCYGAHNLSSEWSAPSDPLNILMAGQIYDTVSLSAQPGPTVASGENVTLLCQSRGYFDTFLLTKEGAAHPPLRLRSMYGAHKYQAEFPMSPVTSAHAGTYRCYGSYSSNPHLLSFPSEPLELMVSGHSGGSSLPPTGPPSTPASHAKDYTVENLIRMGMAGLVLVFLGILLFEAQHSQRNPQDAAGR
T10 sequence (O75023 24-590): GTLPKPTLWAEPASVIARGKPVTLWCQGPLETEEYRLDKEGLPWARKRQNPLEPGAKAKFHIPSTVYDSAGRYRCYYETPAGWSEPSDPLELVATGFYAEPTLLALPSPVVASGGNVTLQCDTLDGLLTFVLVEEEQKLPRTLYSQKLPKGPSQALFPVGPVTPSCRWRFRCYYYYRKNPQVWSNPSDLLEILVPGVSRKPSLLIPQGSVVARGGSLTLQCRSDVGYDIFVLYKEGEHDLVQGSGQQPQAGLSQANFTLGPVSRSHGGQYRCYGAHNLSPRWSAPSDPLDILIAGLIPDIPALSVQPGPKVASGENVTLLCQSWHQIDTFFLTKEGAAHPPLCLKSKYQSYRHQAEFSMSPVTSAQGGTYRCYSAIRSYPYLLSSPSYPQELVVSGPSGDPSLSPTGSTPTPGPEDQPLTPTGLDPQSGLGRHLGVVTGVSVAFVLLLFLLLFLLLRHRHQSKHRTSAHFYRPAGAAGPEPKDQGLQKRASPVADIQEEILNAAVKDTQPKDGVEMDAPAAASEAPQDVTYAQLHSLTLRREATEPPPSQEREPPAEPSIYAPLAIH
T4 sequence (Q8N149 24-483): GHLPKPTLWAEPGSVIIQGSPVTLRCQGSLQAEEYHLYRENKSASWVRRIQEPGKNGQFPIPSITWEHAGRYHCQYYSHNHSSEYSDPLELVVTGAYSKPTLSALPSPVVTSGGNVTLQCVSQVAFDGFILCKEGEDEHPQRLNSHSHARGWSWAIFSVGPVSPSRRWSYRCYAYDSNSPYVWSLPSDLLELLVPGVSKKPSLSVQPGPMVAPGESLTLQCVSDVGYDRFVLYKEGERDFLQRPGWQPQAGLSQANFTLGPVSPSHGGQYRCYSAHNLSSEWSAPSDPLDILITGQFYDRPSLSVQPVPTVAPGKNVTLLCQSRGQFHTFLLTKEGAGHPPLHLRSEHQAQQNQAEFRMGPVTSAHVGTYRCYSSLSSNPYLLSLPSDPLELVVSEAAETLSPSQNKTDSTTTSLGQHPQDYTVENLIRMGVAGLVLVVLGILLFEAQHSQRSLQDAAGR
T5 sequence (P59901 24-499): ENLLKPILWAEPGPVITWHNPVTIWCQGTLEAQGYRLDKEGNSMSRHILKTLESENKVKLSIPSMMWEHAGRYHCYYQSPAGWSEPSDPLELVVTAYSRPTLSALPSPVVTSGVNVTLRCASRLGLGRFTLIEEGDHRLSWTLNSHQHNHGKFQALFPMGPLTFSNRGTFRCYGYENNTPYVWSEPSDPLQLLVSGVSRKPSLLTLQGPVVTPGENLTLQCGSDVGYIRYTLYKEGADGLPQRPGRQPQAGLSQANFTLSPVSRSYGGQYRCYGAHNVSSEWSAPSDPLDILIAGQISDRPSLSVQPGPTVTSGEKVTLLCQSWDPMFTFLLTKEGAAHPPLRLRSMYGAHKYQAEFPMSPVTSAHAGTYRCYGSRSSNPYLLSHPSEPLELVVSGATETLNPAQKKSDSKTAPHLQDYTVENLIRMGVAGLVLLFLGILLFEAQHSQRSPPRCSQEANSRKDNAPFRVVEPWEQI
T3 sequence (O75019 17-489): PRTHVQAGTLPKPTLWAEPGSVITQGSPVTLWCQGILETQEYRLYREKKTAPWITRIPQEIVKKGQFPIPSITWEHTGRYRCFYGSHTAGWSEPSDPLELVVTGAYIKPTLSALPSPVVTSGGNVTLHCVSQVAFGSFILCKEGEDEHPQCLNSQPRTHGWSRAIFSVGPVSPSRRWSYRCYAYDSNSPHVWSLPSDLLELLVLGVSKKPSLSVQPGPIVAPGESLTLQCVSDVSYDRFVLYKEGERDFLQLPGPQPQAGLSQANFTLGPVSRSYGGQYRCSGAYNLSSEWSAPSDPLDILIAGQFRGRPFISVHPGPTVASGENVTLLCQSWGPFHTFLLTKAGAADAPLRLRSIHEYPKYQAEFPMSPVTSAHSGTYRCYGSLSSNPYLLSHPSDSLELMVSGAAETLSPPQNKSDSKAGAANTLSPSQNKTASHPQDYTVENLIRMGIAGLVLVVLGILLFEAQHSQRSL
T1 sequence (Q8N423 other isoform, or with tags, fused parts or gaps limits assumed): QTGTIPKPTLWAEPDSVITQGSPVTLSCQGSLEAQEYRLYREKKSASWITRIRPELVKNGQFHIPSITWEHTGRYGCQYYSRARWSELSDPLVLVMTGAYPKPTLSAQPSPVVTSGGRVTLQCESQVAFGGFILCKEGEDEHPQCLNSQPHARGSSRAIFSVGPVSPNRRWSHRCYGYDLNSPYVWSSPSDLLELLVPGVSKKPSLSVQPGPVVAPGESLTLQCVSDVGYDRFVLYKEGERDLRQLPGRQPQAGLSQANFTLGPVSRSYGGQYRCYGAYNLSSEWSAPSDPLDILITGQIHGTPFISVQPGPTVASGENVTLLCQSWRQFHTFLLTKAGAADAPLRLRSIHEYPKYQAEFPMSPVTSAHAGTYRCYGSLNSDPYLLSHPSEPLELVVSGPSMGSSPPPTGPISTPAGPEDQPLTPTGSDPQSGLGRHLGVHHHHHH

Binder	EC50 [1]	MFI [2]	MFI [3]	MFI [4]	MFI [5]	MFI [6]	MFI [7]	MFI [8]	MFI [9]	MFI [10]	EC50 [11]
B1	3.81 ng/mL	11300 MFI	898 MFI	38 MFI	116 MFI	127 MFI	223 MFI	163 MFI	40 MFI	147 MFI	–
B2	–	1160 MFI	73 MFI	31 MFI	30 MFI	21 MFI	22 MFI	22 MFI	20 MFI	21 MFI	2.74 ng/mL

From US20240132589A1 (ONCORESPONSE, published 2024)
